{
  "source": "IntAct's records for PubMed 31515488",
  "parents": {"B1": {"name": "DCC-interacting protein 13-alpha (Homo sapiens), Q9UKG1 (parent)", "chain": "MPGIDKLPIEETLEDSPQTRSLLGVFEEDATAISNYMNQLYQAMHRIYDAQNELSAATHLTSKLLKEYEKQRFPLGGDDEVMSSTLQQFSKVIDELSSCHAVLSTQLADAMMFPITQFKERDLKEILTLKEVFQIASNDHDAAINRYSRLSKKRENDKVKYEVTEDVYTSRKKQHQTMMHYFCALNTLQYKKKIALLEPLLGYMQAQISFFKMGSENLNEQLEEFLANIGTSVQNVRREMDSDIETMQQTIEDLEVASDPLYVPDPDPTKFPVNRNLTRKAGYLNARNKTGLVSSTWDRQFYFTQGGNLMSQARGDVAGGLAMDIDNCSVMAVDCEDRRYCFQITSFDGKKSSILQAESKKDHEEWICTINNISKQIYLSENPEETAARVNQSALEAVTPSPSFQQRHESLRPAAGQSRPPTARTSSSGSLGSESTNLAALSLDSLVAPDTPIQFDIISPVCEDQPGQAKAFGQGGRRTNPFGESGGSTKSETEDSILHQLFIVRFLGSMEVKSDDHPDVVYETMRQILAARAIHNIFRMTESHLLVTCDCLKLIDPQTQVTRLTFPLPCVVLYATHQENKRLFGFVLRTSSGRSESNLSSVCYIFESNNEGEKICDSVGLAKQIALHAELDRRASEKQKEIERVKEKQQKELNKQKQIEKDLEEQSRLIAASSRPNQASSEGQFVVLSSSQSEESDLGEGGKKRESEA", "partner": "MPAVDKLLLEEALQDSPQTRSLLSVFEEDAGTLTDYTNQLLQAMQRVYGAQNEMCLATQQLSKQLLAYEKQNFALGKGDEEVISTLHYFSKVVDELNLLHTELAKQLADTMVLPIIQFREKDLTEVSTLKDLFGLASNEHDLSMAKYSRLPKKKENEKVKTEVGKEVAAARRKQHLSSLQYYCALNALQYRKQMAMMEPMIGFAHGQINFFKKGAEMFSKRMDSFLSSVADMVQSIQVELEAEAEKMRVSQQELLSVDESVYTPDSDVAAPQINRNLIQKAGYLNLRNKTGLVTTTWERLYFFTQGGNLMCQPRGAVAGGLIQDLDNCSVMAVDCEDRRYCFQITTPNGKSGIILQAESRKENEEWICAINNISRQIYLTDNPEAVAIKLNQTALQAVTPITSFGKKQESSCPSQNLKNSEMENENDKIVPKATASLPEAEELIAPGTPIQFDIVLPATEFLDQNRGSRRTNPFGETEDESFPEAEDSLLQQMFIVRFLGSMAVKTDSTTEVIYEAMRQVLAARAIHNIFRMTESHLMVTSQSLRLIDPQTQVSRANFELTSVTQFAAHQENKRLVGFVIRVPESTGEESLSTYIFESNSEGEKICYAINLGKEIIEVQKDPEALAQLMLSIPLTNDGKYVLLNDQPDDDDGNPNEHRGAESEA"}, "B2": {"name": "SKA complex subunit 1 (Homo sapiens), Q96BD8 (parent)", "chain": "MASSDLEQLCSHVNEKIGNIKKTLSLRNCGQEPTLKTVLNKIGDEIIVINELLNKLELEIQYQEQTNNSLKELCESLEEDYKDIEHLKENVPSHLPQVTVTQSCVKGSDLDPEEPIKVEEPEPVKKPPKEQRSIKEMPFITCDEFNGVPSYMKSRLTYNQINDVIKEINKAVISKYKILHQPKKSMNSVTRNLYHRFIDEETKDTKGRYFIVEADIKEFTTLKADKKFHVLLNILRHCRRLSEVRGGGLTRYVIT", "partner": "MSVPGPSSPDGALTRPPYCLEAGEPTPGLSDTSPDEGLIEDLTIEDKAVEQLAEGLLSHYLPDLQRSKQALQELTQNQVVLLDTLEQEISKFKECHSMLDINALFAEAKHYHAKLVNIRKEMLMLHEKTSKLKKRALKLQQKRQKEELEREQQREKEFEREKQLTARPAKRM"}, "B3": {"name": "Rho guanine nucleotide exchange factor 3 (Homo sapiens), Q9NR81 (parent)", "chain": "MVAKDYPFYLTVKRANCSLELPPASGPAKDAEEPSNKRVKPLSRVTSLANLIPPVKATPLKRFSQTLQRSISFRSESRPDILAPRPWSRNAAPSSTKRRDSKLWSETFDVCVNQMLTSKEIKRQEAIFELSQGEEDLIEDLKLAKKAYHDPMLKLSIMTEQELNQIFGTLDSLIPLHEELLSQLRDVRKPDGSTEHVGPILVGWLPCLSSYDSYCSNQVAAKALLDHKKQDHRVQDFLQRCLESPFSRKLDLWNFLDIPRSRLVKYPLLLREILRHTPNDNPDQQHLEEAINIIQGIVAEINTKTGESECRYYKERLLYLEEGQKDSLIDSSRVLCCHGELKNNRGVKLHVFLFQEVLVITRAVTHNEQLCYQLYRQPIPVKDLLLEDLQDGEVRLGGSLRGAFSNNERIKNFFRVSFKNGSQSQTHSLQANDTFNKQQWLNCIRQAKETVLCAAGQAGVLDSEGSFLNPTTGSRELQGETKLEQMDQSDSESDCSMDTSEVSLDCERMEQTDSSCGNSRHGESNV", "partner": "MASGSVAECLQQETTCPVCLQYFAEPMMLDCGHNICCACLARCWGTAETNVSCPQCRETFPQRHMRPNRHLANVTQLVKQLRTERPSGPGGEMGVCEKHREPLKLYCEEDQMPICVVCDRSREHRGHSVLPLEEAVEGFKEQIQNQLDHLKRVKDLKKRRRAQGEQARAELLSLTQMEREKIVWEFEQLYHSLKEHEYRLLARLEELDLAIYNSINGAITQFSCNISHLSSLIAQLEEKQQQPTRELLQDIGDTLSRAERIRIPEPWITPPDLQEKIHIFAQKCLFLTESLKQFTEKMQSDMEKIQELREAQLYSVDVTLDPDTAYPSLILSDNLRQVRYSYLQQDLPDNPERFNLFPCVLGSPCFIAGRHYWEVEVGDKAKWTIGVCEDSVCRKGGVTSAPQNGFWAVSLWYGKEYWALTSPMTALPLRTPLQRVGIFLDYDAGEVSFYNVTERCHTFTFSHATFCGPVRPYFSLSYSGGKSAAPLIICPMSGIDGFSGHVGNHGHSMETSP"}, "B4": {"name": "\"Guanine nucleotide-binding protein G(T) subunit gamma-T1\" (Homo sapiens), P63211 (parent)", "chain": "MPVINIEDLTEKDKLKMEVDQLKKEVTLERMLVSKCCEEVRDYVEERSGEDPLVKGIPEDKNPFKELKGGCVIS", "partner": "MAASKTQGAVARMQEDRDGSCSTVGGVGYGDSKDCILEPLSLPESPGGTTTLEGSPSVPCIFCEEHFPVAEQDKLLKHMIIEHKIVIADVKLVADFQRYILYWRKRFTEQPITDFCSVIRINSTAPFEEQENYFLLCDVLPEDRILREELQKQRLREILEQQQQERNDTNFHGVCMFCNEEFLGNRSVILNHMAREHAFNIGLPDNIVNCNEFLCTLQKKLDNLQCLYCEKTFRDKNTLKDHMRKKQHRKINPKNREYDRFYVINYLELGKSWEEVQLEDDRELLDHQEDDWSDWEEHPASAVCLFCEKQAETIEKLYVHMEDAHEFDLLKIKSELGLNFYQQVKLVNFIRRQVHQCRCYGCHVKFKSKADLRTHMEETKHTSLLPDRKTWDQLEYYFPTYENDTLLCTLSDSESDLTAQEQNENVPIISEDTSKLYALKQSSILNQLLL"}, "B5": {"name": "Keratin, type II cytoskeletal 6A (Homo sapiens), P02538 (parent)", "chain": "MASTSTTIRSHSSSRRGFSANSARLPGVSRSGFSSVSVSRSRGSGGLGGACGGAGFGSRSLYGLGGSKRISIGGGSCAISGGYGSRAGGSYGFGGAGSGFGFGGGAGIGFGLGGGAGLAGGFGGPGFPVCPPGGIQEVTVNQSLLTPLNLQIDPTIQRVRAEEREQIKTLNNKFASFIDKVRFLEQQNKVLETKWTLLQEQGTKTVRQNLEPLFEQYINNLRRQLDSIVGERGRLDSELRGMQDLVEDFKNKYEDEINKRTAAENEFVTLKKDVDAAYMNKVELQAKADTLTDEINFLRALYDAELSQMQTHISDTSVVLSMDNNRNLDLDSIIAEVKAQYEEIAQRSRAEAESWYQTKYEELQVTAGRHGDDLRNTKQEIAEINRMIQRLRSEIDHVKKQCANLQAAIADAEQRGEMALKDAKNKLEGLEDALQKAKQDLARLLKEYQELMNVKLALDVEIATYRKLLEGEECRLNGEGVGQVNISVVQSTVSSGYGGASGVGSGLGLGGGSSYSYGSGLGVGGGFSSSSGRAIGGGLSSVGGGSSTIKYTTTSSSSRKSYKH", "partner": "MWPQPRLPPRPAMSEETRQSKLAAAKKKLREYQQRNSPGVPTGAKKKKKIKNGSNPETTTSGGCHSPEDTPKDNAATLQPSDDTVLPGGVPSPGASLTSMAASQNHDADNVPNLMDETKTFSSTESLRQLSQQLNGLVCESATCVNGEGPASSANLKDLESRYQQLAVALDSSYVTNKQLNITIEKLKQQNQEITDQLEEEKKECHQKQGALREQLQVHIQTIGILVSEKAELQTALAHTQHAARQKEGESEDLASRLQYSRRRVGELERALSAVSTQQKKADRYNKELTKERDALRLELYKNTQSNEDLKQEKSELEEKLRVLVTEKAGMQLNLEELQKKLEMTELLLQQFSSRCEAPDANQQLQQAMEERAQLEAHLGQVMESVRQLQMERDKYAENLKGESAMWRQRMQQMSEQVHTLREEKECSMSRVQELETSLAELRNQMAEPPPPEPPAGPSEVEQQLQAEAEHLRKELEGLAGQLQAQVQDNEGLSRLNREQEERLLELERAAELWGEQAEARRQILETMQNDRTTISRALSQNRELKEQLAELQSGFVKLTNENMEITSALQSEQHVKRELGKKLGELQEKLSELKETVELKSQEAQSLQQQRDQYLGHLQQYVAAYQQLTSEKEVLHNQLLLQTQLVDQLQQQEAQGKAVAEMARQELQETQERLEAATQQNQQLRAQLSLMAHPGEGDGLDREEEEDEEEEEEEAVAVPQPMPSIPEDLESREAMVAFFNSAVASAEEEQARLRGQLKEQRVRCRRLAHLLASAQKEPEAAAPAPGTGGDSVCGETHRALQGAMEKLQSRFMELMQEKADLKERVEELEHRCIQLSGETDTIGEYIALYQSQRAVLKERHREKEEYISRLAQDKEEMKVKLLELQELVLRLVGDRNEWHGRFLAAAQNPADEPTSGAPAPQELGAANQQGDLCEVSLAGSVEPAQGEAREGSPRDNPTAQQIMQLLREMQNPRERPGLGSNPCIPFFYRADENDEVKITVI"}},
  "data": [
    {"variants_of": "B1", "settings": "with dp13b_human APPL2, Q8NEU8", "values": [
      {"variant": "E643Q", "effect of a mutation on the interaction": "with no effect"},
      {"variant": "E67G", "effect of a mutation on the interaction": "with no effect"}
    ]},
    {"variants_of": "B2", "settings": "with bl1s6_human BLOC1S6, Q9UL45", "values": [
      {"variant": "H86R", "effect of a mutation on the interaction": "with no effect"},
      {"variant": "V230M", "effect of a mutation on the interaction": "with no effect"}
    ]},
    {"variants_of": "B3", "settings": "with tri27_human TRIM27, P14373", "values": [
      {"variant": "N432S", "effect of a mutation on the interaction": "with no effect"}
    ]},
    {"variants_of": "B4", "settings": "with zn277_human ZNF277, Q9NRM2", "values": [
      {"variant": "E50K", "effect of a mutation on the interaction": "with no effect"}
    ]},
    {"variants_of": "B5", "settings": "with goga2_human GOLGA2, Q08379", "values": [
      {"variant": "V523F", "effect of a mutation on the interaction": "with no effect"},
      {"variant": "T552S", "effect of a mutation on the interaction": "with no effect"},
      {"variant": "R559G", "effect of a mutation on the interaction": "with no effect"},
      {"variant": "R415H", "effect of a mutation on the interaction": "with no effect"},
      {"variant": "A335T", "effect of a mutation on the interaction": "with no effect"}
    ]}
  ]
}
